Results taken from patent publication US20050251879A1 (published 2005).

What was measured:
[1] = target: T1, SNF1 fused with the Gal4 binding domain (pBD-SNF1) (UniProt P04386 1-147; P06782 1-633); test: yeast two-hybrid, lacZ activity
T1 construct: Control plasmid, bought

[2] = target: T2, Gal4 binding domain alone (pGBT1) (UniProt P04386 1-147); test: yeast two-hybrid, lacZ activity
T2 construct: Control

[3] = target: Tobacco vein mottling virus capsid protein (TVMV CP), Gal4 binding domain fusion (Tobacco vein mottling virus, UniProt P04386 1-147; P09814 2759-3023); test: yeast two-hybrid, HIS3 and lacZ reporters
[4] = target: T3, Potato virus Y capsid protein (PVY CP) fused with the Gal4 binding domain (Potato virus Y (N strain), UniProt P04386 1-147; P18247 2797-3063); test: yeast two-hybrid, lacZ activity
T3 construct: also called pGBT9-PVY CP; PVY envelope protein

[5] = target: T3, Potato virus Y capsid protein (PVY CP) …; test: yeast two-hybrid, lacZ reporter

B1: NtCPIP1 (DnaJ-like protein from Nicotiana tabacum) fused with the Gal4 activation domain (other)
chain: MGVDYYKILKVSRNASEEDLKKSYKRLAMKWHPDKNSEKEAEAKFKQISEAYDVLSDPQKRQIYDIYGDEALKSGQFDPSSPMNGNGRGFKFDSRDAEDIFAEFFGGSDGYSRSPTGGTVRIRKPAPVENKLPCSLEELYKGSKRKMKISRIVLDVTGKPTTIEEVLAIHIKPGWKKGTKITFPEKGNHEPGAAPGDLIFVIDEKPHDVFKRDGNDLVINQKISLVDALSGKIINLATLDGRELTIPITDVVKPGHEQIIADEGMPISKEPGKKGNLRIKFEVKFPSRLSSDQKLDIRRVLGRTVD
notes: also called pAD-CPIP1
B1: no binding [1]; no binding [2]; no binding [3].

B2: SNF4 fused with the Gal4 activation domain (pAD-SNF4) (other)
chain: MKPTQDSQEKVSIEQQLAVESIRKFLNSKTSYDVLPVSYRLIVLDTSLLVKKSLNVLLQNSIVSAPLWDSKTSRFAGLLTTTDFINVIQYYFSNPDKFELVDKLQLDGLKDIERALGVDQLDTASIHPSRPLFEACLKMLESRSGRIPLIDQDEETHREIVVSVLTQYRILKFVALNCRETHFLKIPIGDLNIITQDNMKSCQMTTPVIDVIQMLTQGRVSSVPIIDENGYLINVYEAYDVLGLIKGGIYNDLSLSVGEALMRRSDDFEGVYTCTKNDKLSTIMDNIRKARVHRFFVVDDVGRLVGVLTLSDILKYILLGSN
B2: no binding [4].

B3: NtCPIP1 Δ115N, Gal4 activation domain fusion (other)
chain: TGGTVRIRKPAPVENKLPCSLEELYKGSKRKMKISRIVLDVTGKPTTIEEVLAIHIKPGWKKGTKITFPEKGNHEPGAAPGDLIFVIDEKPHDVFKRDGNDLVINQKISLVDALSGKIINLATLDGRELTIPITDVVKPGHEQIIADEGMPISKEPGKKGNLRIKFEVKFPSRLSSDQKLDIRRVLGRTVD
B3: no binding [5].

B4: NtCPIP2a Δ94N, Gal4 activation domain fusion (other)
chain: RFNTRDAEAIFAEFFGGSGSNSGAGVGRKAAPVENKLPCSLEELYKGSRRKMKISRILLDDSGKPTTVEEVLAIHIKPGWKKGTKITFPEKGNYEPGATPGDLIFVIDEKPHAVFKRDGNDLEINQKISLLDALTGKTISLITLDGRELTIPITDIVKPGHEHIIPNEGMPISKERGKKGNLKIKFDIKFPSRLSADQKSDIRRVLCRSAD
B4: no binding [5].

B5: NtCPIP2a Δ119N, Gal4 activation domain fusion (other)
chain: VGRKAAPVENKLPCSLEELYKGSRRKMKISRILLDDSGKPTTVEEVLAIHIKPGWKKGTKITFPEKGNYEPGATPGDLIFVIDEKPHAVFKRDGNDLEINQKISLLDALTGKTISLITLDGRELTIPITDIVKPGHEHIIPNEGMPISKERGKKGNLKIKFDIKFPSRLSADQKSDIRRVLCRSAD
B5: no binding [5].

B6: NtCPIP2a (DnaJ-like protein from Nicotiana tabacum), Gal4 activation domain fusion (other)
chain: MGLDYYNVLKVSRNASEEDLKRSYKRLAMKWHPDKNSQNKKEAEAKFKQISEAYDVLSDPQKRQIYDVYGDDALKSGQFASASPTSAGSNARGFRFNTRDAEAIFAEFFGGSGSNSGAGVGRKAAPVENKLPCSLEELYKGSRRKMKISRILLDDSGKPTTVEEVLAIHIKPGWKKGTKITFPEKGNYEPGATPGDLIFVIDEKPHAVFKRDGNDLEINQKISLLDALTGKTISLITLDGRELTIPITDIVKPGHEHIIPNEGMPISKERGKKGNLKIKFDIKFPSRLSADQKSDIRRVLCRSAD
B6: no binding [3].

B7: NtCPIP2b (DnaJ-like protein from Nicotiana tabacum), Gal4 activation domain fusion (other)
chain: MGLDYYDVLKVSRNASEEDLKRSYKRLAMKWHPDKNSQNKKEAEAKFKQISEAYDVLSDPQKRQIYDVYGDDALKSGQFASASPTSAGSNGRGFRFNTRDAEAIFAEFFGGSDSNSAAGVGRKAAPVENKLPCSLEELYKGSRRKMKISRILLDDSGKPTTVEEVLAIHIKPGWKKGTKITFPEKGNYEPGATPGDLIFVIDEKPHAVFKRDGNDLVINQKISLLDALTGKTISLITLDGRELTIPITDVVKPGHEHIIPNEGMPISKERGKKGNLKIKFDIKFPSRLSADQKSDIRRVLCRNSD
B7: no binding [3].
